From article PMC4047408, “Assembly of the Respiratory Mucin MUC5B” (The Journal of Biological Chemistry, 2014)
Values belong to the molecule of their own block, whether it stands above or below them.

Tests used:
[1] = biological target: recombinant MUC5B N terminus D1-D2-D′-D3 (NT5B), from 293-EBNA cells (human) (UniProt Q9HC84); test: SEC-MALLS; Superose 6 10/300, 25 mM Hepes, 150 mM NaCl, with 5 mM CaCl2 or 5 mM EGTA at pH 7.4 or pH 6, room temperature, after overnight incubation at 4 °C
[2] = biological target: recombinant MUC5B N terminus D1-D2-D′-D3 (NT5B), from 293-EBNA cells (human) (UniProt Q9HC84); test: AUC; sedimentation velocity, 35,000 rpm, 20 °C; NT5B in 5 mM EGTA at pH 7.4 or pH 6, or 5 mM CaCl2 at pH 7.4
[3] = biological target: recombinant MUC5B N terminus D1-D2-D′-D3 (NT5B), from 293-EBNA cells (human) (UniProt Q9HC84); test: SDS-PAGE, reduced and nonreduced; purified recombinant proteins from 293-EBNA conditioned medium; shows disulfide-linked dimers
[4] = biological target: recombinant MUC5B N terminus D1-D2-D′-D3 (NT5B), from A549 cells (human) (UniProt Q9HC84); test: SDS-PAGE (reduced and nonreduced) and Western blot with anti-His antibody; conditioned medium of transiently transfected A549 cells
[5] = biological target: disulfide-linked NT5B dimer (human) (UniProt Q9HC84); test: SEC-MALLS; NT5B in 5 mM CaCl2 at pH 6, Superose 6 10/300, 25 mM Hepes, 150 mM NaCl; recovery in the dimer peak compared with 5 mM EGTA at pH 6
[6] = biological target: disulfide-linked NT5B dimer (human) (UniProt Q9HC84); test: AUC; sedimentation velocity, 35,000 rpm, 20 °C; NT5B in 5 mM CaCl2 at pH 5
[7] = biological target: disulfide-linked NT5B dimer (human) (UniProt Q9HC84); test: AUC; sedimentation velocity, 35,000 rpm, 20 °C; NT5B in 5 mM CaCl2 at pH 6; reversed by 10 mM EGTA and pH 7.4
[8] = biological target: the molecule itself; test: SDS-PAGE, reduced and nonreduced; purified recombinant proteins from 293-EBNA conditioned medium; shows disulfide-linked dimers

Molecule: disulfide-linked NT5B dimer (from UniProt Q9HC84 26-1304) (complex)
reduction of protein recovered in the dimer peak (5 mM CaCl2 pH 6 against 5 mM EGTA pH 6) [5]: 15%
higher order multimeric species, percent of total [6]: 44 % of total
multimeric fraction (peak III), percent of total [7]: 29 % of total

B1: recombinant MUC5B D3 domain (domain or fragment, human, UniProt Q9HC84 894-1304, looked up)
chain: TCVAYGDGHFITFDGDRYSFEGSCEYILAQDYCGDNTTHGTFRIVTENIPCGTTGTTCSKAIKLFVESYELILQEGTFKAVARGPGGDPPYKIRYMGIFLVIETHGMAVSWDRKTSVFIRLHQDYKGRVCGLCGNFDDNAINDFATRSRSVVGDALEFGNSWKLSPSCPDALAPKDPCTANPFRKSWAQKQCSILHGPTFAACRSQVDSTKYYEACVNDACACDSGGDCECFCTAVAAYAQACHDAGLCVSWRTPDTCPLFCDFYNPHGGCEWHYQPCGAPCLKTCRNPSGHCLVDLPGLEGCYPKCPPSQPFFNEDQMKCVAQCGCYDKDGNYYDVGARVPTAENCQSCNCTPSGIQCAHSLEACTCTYEDRTYSYQDVIYNTTDGLGACLIAICGSNGTIIRKAVACPG
notes: MUC5B, human, D3 domain, residues 894-1304; also called D3 protein
stoichiometry N [8]: 2

B2: recombinant MUC5B D2-D′-D3 domains (domain or fragment, human, UniProt Q9HC84 425-1304, looked up)
chain: CSVQGGAHISTYDEKLYDLHGDCSYVLSKKCADSSFTVLAELRKCGLTDNENCLKAVTLSLDGGDTAIRVQADGGVFLNSIYTQLPLSAANITLFTPSSFFIVVQTGLGLQLLVQLVPLMQVFVRLDPAHQGQMCGLCGNFNQNQADDFTALSGVVEATGAAFANTWKAQAACANARNSFEDPCSLSVENENYARHWCSRLTDPNSAFSRCHSIINPKPFHSNCMFDTCNCERSEDCLCAALSSYVHACAAKGVQLSDWRDGVCTKYMQNCPKSQRYAYVVDACQPTCRGLSEADVTCSVSFVPVDGCTCPAGTFLNDAGACVPAQECPCYAHGTVLAPGEVVHDEGAVCSCTGGKLSCLGASLQKSTGCAAPMVYLDCSNSSAGTPGAECLRSCHTLDVGCFSTHCVSGCVCPPGLVSDGSGGCIAEEDCPCVHNEATYKPGETIRVDCNTCTCRNRRWECSHRLCLGTCVAYGDGHFITFDGDRYSFEGSCEYILAQDYCGDNTTHGTFRIVTENIPCGTTGTTCSKAIKLFVESYELILQEGTFKAVARGPGGDPPYKIRYMGIFLVIETHGMAVSWDRKTSVFIRLHQDYKGRVCGLCGNFDDNAINDFATRSRSVVGDALEFGNSWKLSPSCPDALAPKDPCTANPFRKSWAQKQCSILHGPTFAACRSQVDSTKYYEACVNDACACDSGGDCECFCTAVAAYAQACHDAGLCVSWRTPDTCPLFCDFYNPHGGCEWHYQPCGAPCLKTCRNPSGHCLVDLPGLEGCYPKCPPSQPFFNEDQMKCVAQCGCYDKDGNYYDVGARVPTAENCQSCNCTPSGIQCAHSLEACTCTYEDRTYSYQDVIYNTTDGLGACLIAICGSNGTIIRKAVACPG
notes: MUC5B, human, D2-D′-D3 domains, residues 425-1304
stoichiometry N [8]: 2

Second part, the molecule after the results:

stoichiometry N [1]: 2
stoichiometry N [2]: 2
stoichiometry N [3]: 2
Molecule: recombinant MUC5B N terminus D1-D2-D′-D3 (NT5B), from 293-EBNA cells (from UniProt Q9HC84 26-1304) (domain or fragment)

stoichiometry N [4]: 2
Molecule: recombinant MUC5B N terminus D1-D2-D′-D3 (NT5B), from A549 cells (from UniProt Q9HC84 26-1304) (domain or fragment)
